Reference: the supplement of paper PMC10126150
± gives the standard deviation of the averaged measurements.

system: ATP; assay: switch fluorescence ratio, 500 uM ATP over buffer (Cy3 cluster intensity, sum of 5 cycles each) (fold (ratio)); higher = stronger signal-on switching upon ATP binding; sequences stand for … in TCGTCGGCAGCGTCAGATGTGTATAAGAGACAGTTTTTTTTTTTTTTTTTTTTTTTTT…TC; conditions: aptamer strand: ATP DNA aptamer (quencher-CACCTGGGGGAGTATTGCGGAGGAAGG + anchor), 100 nM annealed; ATP concentration: 500 uM
How it was run: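 The quencher-labelled ATP aptamer, at 100 nM, was annealed to Cy3-labelled switching-strand clusters on a modified Illumina MiSeq flow-cell. The clusters were imaged in selection buffer, then after 15 min with 500 uM ATP at 22 °C, and this buffer/ATP cycle ran five times with NaOH stripping and re-annealing between runs. Per-cluster fluorescence ratios, summed target-cycle over summed buffer-cycle Cy3 intensity, were averaged per switch-domain sequence. Clusters outside 100-1000 RFU were excluded.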
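Also: ATP exposure 15 min at 22 °C before imaging.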

Row | Sequence | switch fluorescence ratio
1 | TTTAGCGCGG | 1 ± 0.029
2 | CGTTGATGCT | 1.01 ± 0.02
3 | GGGTCTTCGT | 0.968 ± 0.039
4 | CGAAAGATGT | 0.9857 ± 0.0025
5 | CCTTCCGTTC | 2.66 ± 0.53
6 | TAAATGGTGG | 0.977 ± 0.015
7 | GAGTACGCTA | 3.07 ± 1.2
8 | CGAATTAGAA | 0.982 ± 0.042
9 | AAATACCCAG | 1.04 ± 0.034
10 | GGGGAAAAAG | 1.01 ± 0.028
11 | TGATAAAAAT | 0.993 ± 0.027
12 | AAAGTTTGG | 0.977 ± 0.017
13 | GTTTGGGTTG | 0.989 ± 0.019
14 | ATGGGTTCGC | 0.976 ± 0.035
15 | TGTTTGTAAA | 1.01 ± 0.029
16 | TGGAATATGG | 1.04 ± 0.021
17 | ATGACGCTTT | 1.02 ± 0.022
18 | GTGGGATATT | 0.9809 ± 0.0056
19 | GAGGGAAGTT | 1.04 ± 0.037
20 | TTTCATGGCG | 0.97893 ± 0.0002
21 | CCTGAAATAT | 2.53 ± 1.7
22 | GATTTCATGG | 0.9784 ± 0.0044
23 | TCAGGGGATC | 1.01 ± 0.017
24 | TCGCTGCGGA | 1.01 ± 0.018
25 | CCGGGCCGAA | 1.05 ± 0.017

Row | Sequence | switch fluorescence ratio
26 | TATGTACGAT | 1.05 ± 0.059
27 | TGTTATGGGT | 1.04 ± 0.039
28 | GGCCGTATGT | 1.01 ± 0.011
29 | ACTATTAAT | 1.024 ± 0.0063
30 | TTGATCGATG | 0.9886 ± 0.0068
31 | AAGACAGTGC | 0.9932 ± 0.0059
32 | TGGGCATTTT | 0.987 ± 0.025
33 | ATGGTTCCAC | 0.997 ± 0.024
34 | CTATGATTTG | 0.9976 ± 0.0042
35 | TTGATGAAGA | 1.01 ± 0.036
36 | TTTTGTGAGA | 1.026 ± 0.0075
37 | TTTGGGGGCC | 1.009 ± 0.0061
38 | CGAAGTGGCC | 1.02 ± 0.016
39 | CGGGTTACGA | 1.02 ± 0.028
40 | AGTAGTGTTG | 1.01 ± 0.068
41 | GAAGCTTTAG | 1.06 ± 0.019
42 | GGGGGGGGGC | 1.03 ± 0.098
43 | AGCTTAAATT | 0.987 ± 0.018
44 | CAAATTTGAT | 1.03 ± 0.027
45 | ACCAAGAGCG | 1.05 ± 0.023
46 | AGCAGAAATC | 1.07 ± 0.039
47 | GACGGGGGTA | 1.04 ± 0.043
48 | CTAGGAGTTT | 0.999 ± 0.011
49 | GGGTTGACGG | 0.986 ± 0.057
50 | TAGGCAGGGG | 1.08 ± 0.021

Row | Sequence | switch fluorescence ratio
51 | CAAAGTGTGG | 0.989 ± 0.054
52 | CGGGTGGGTC | 1.29 ± 0.51
53 | ATAGTGACCG | 1.01 ± 0.013
54 | TTGGGGTGGC | 0.965 ± 0.061
55 | TAAGAAAACT | 1.36 ± 0.22
56 | TGAGAGAGTG | 1.02 ± 0.059
57 | AAGTGGCTGG | 0.991 ± 0.038
58 | ATCCAGTGTG | 1.89 ± 0.2
59 | CGGGCTTGTG | 1 ± 0.011
60 | TCGTTTTGGG | 0.9988 ± 0.0056
61 | ATTTCAGGTC | 1.02 ± 0.013
62 | GCTTGGACTA | 0.967 ± 0.011
63 | TTTGTAGTGT | 0.999 ± 0.026
64 | AAACATAGTG | 0.987 ± 0.052
65 | TTTTTACTAT | 1.002 ± 0.0057
66 | CCGACGGAGG | 1.99 ± 1.2
67 | TTTTCATCTG | 1.03 ± 0.098
68 | TCTGGTTGAG | 1.02 ± 0.019
69 | CCACAATCAG | 1.274 ± 0.012
70 | ATTTTTTTTG | 0.987 ± 0.023
71 | CGCACAGTCA | 1.06 ± 0.023
72 | AGCGAATTTT | 0.999 ± 0.017
73 | TGTTTTATCA | 0.9742 ± 0.0037
74 | GGTGGGTTGG | 0.982 ± 0.034
75 | GATAGGTTGT | 1.02 ± 0.035

Row | Sequence | switch fluorescence ratio
76 | CAGTGTGAAG | 0.958 ± 0.016
77 | AGGTTTGGGT | 0.998 ± 0.026
78 | TTTGGGGAGT | 1 ± 0.088
79 | GTGGGGGTCT | 0.972 ± 0.013
80 | TTAGTTGGCA | 0.981 ± 0.016
81 | GGCAGATTTT | 0.9986 ± 0.006
82 | ATTCCAGAGG | 1.01 ± 0.02
83 | TAGTGTTTCT | 1.01 ± 0.018
84 | TTCGGGGGCA | 1.01 ± 0.052
85 | CGGCTTTTGT | 1 ± 0.029
86 | AACGTTAGGG | 0.998 ± 0.029
87 | AAGAGCGGGA | 0.989 ± 0.041
88 | CGTGGGGTGG | 1.02 ± 0.045
89 | TCCAGGTGCG | 2.96 ± 0.33
90 | TGATAATCTT | 0.99 ± 0.028
91 | ATTTTAGTTT | 1 ± 0.016
92 | AAATATTTAC | 1.12 ± 0.11
93 | CATTCCGAGA | 1.4 ± 0.024
94 | AGTGAGCTGG | 0.9733 ± 0.0031
95 | ACTGACTGGT | 1.06 ± 0.037
96 | TAATAAAAGG | 0.998 ± 0.041
97 | GGGGGTCGCA | 0.947 ± 0.069
98 | GGGGGCATCT | 1 ± 0.019
99 | TGCAAATTGG | 0.992 ± 0.011
100 | TATAGTGGCG | 1.02 ± 0.051

Row | Sequence | switch fluorescence ratio
101 | AACAGGGGGG | 1.02 ± 0.081
102 | TCGACAAAGG | 1.07 ± 0.021
103 | TGCTGTCTGT | 0.9903 ± 0.0058
104 | AAGCCCTAGC | 0.976 ± 0.036
105 | CTGGGGTTCG | 1.0213 ± 0.00034
106 | TCGGGGGGTG | 1.01 ± 0.041
107 | TTTCTCAGTT | 0.977 ± 0.02
108 | ATAATGGTC | 1.003 ± 0.008
109 | TTTGGACAGG | 1.004 ± 0.0071
110 | CAGGTGGGTC | 1.02 ± 0.018
111 | TATCATGTCG | 0.986 ± 0.031
112 | GGGTGATTGC | 0.964 ± 0.011
113 | ACACATGTAT | 1 ± 0.045
114 | GGTGGGGTTG | 1 ± 0.04
115 | AGGAATTGAA | 0.982 ± 0.028
116 | GGACTGGCTA | 1.02 ± 0.035
117 | TGGTTGTAAG | 1.03 ± 0.024
118 | GGGGCTTGTG | 1.01 ± 0.028
119 | AGGGGTGCCT | 0.993 ± 0.013
120 | TTTATGTCTA | 1.02 ± 0.024
121 | CGGCGAAGGG | 0.961 ± 0.014
122 | TTAAACTTAT | 1.047 ± 0.0024
123 | GGGGGACGGT | 1.02 ± 0.017
124 | CAGATATGGC | 1.05 ± 0.034
125 | TTAGAGTTGT | 0.999 ± 0.034

Row | Sequence | switch fluorescence ratio
126 | AATTCCGGGT | 1.02 ± 0.031
127 | TTGCGTTATC | 1.2 ± 0.27
128 | AGAGTTATGT | 1.019 ± 0.0068
129 | GATGATTCGG | 0.984 ± 0.037
130 | CGGTCGATCC | 1 ± 0.023
131 | AGGTTAAGTA | 1 ± 0.027
132 | CTCATGTTGG | 0.983 ± 0.015
133 | CGGAAGTCTT | 0.992 ± 0.024
134 | AATTTTTGTA | 0.984 ± 0.018
135 | GCCTGAGGGA | 1.05 ± 0.049
136 | TTTACTATAT | 1.04 ± 0.032
137 | ACCCGATCTT | 1 ± 0.053
138 | CACACGTGGT | 0.9908 ± 0.0036
139 | GGGTGTTTAG | 1.01 ± 0.027
140 | AAATTGGGAG | 1.016 ± 0.0026
141 | AGGCAGACCG | 1.03 ± 0.07
142 | ATTTTTAGAC | 1.03 ± 0.022
143 | TGGATTGGGG | 0.978 ± 0.059
144 | TATAATCGGG | 0.989 ± 0.015
145 | TAAAAATTAT | 1 ± 0.028
146 | TTGTTAACTT | 0.985 ± 0.017
147 | TTTTGTGAAG | 0.963 ± 0.035
148 | GTGGTAATGG | 0.953 ± 0.021
149 | CGACGGTGAA | 1.09 ± 0.022
150 | AAGGTCCTCT | 1 ± 0.004

Row | Sequence | switch fluorescence ratio
151 | CATATCTGTT | 1.02 ± 0.024
152 | ATTAAATAGA | 1.02 ± 0.014
153 | TTAAGAAGCC | 0.987 ± 0.049
154 | ATCGAGTGTG | 1.01 ± 0.027
155 | GATTCTTAAG | 1 ± 0.022
156 | GATTTATGG | 0.994 ± 0.058
157 | GATTAAATAT | 1.02 ± 0.012
158 | ATGGGGCTTT | 1.01 ± 0.013
159 | GAGGGGTGTA | 0.9896 ± 0.0085
160 | CACTTGGTCG | 1 ± 0.068
161 | GCGCTTGAGG | 1.006 ± 0.0083
162 | ATTAAGGCTA | 0.983 ± 0.036
163 | GATATTGGCG | 0.956 ± 0.013
164 | GTAAAAAGAG | 1 ± 0.011
165 | TACTGATCGT | 1.04 ± 0.024
166 | TCACGGATGT | 1.04 ± 0.012
167 | TTTTGGAGAG | 1.01 ± 0.016
168 | GATGGTTGGA | 0.9825 ± 0.0056
169 | AGGGTTGTAT | 1.001 ± 0.0037
170 | TTATTAAGCT | 1.01 ± 0.027
171 | GCATAATTTA | 0.9898 ± 0.0096
172 | ACTCAAGGCT | 1.07 ± 0.049
173 | CAAGGAGTCT | 1.02 ± 0.035
174 | CGTTAGGGCA | 0.979 ± 0.02
175 | AAGGGAGGCG | 1.14 ± 0.2

Row | Sequence | switch fluorescence ratio
176 | TTTTGTGTGC | 1.02 ± 0.022
177 | GTGTATGTTT | 1.01 ± 0.028
178 | TGGCCAGGGT | 1.06 ± 0.031
179 | GCCGTATGCG | 0.992 ± 0.019
180 | GACCTATATT | 1.05 ± 0.022
181 | ATTTTTTAAA | 0.994 ± 0.027
182 | AGCAGTGACT | 1.13 ± 0.036
183 | CTGGATTTCA | 0.99 ± 0.027
184 | GAGCTGGCGG | 1.05 ± 0.038
185 | ATATGTGACT | 0.977 ± 0.014
186 | GGGTAGGGTG | 1.04 ± 0.055
187 | TTATAGCAGT | 1.06 ± 0.04
188 | TATGTCAAGC | 0.96 ± 0.038
189 | AGACAGGGAC | 1.04 ± 0.016
190 | CGTAAGAGCT | 1 ± 0.016
191 | CGGAACGCA | 2.01 ± 0.046
192 | CGGGGGGGTA | 1 ± 0.027
193 | CTTTGAAGTT | 1.01 ± 0.029
194 | GACACCAATC | 1.36 ± 0.052
195 | TCTTACAATT | 0.971 ± 0.036
196 | GGTTTCTAAG | 1.01 ± 0.042
197 | TGTTCGACCG | 1.012 ± 0.01
198 | CGGAAGATTA | 0.9588 ± 0.0045
199 | TAAGACGCAA | 1.62 ± 0.12
200 | CCGATGTGTC | 2.42 ± 0.52
